Columns and labels:
[1] = target: Ag85 (antigen 85 complex proteins) on the surface of live Mycobacterium abscessus cells (M. abscessus (endogenous in CIP104536T cells)); test: dynamic force spectroscopy (AFM single-molecule force spectroscopy at varied loading rate); Fn tip on live M. abscessus R cells; retraction speeds 0.5, 1, 2.5, 5 and 10 um/s; loading rates 100 to 100,000 pN/s; 13 cells; fit of the Friddle-Noy-de Yoreo model; Kd calculated from Feq and keff (7 pN/nm)
[2] = target: Ag85 (antigen 85 complex proteins) on the surface of live Mycobacterium abscessus cells (M. abscessus (endogenous in CIP104536T cells)); test: single-molecule force spectroscopy (AFM); Fn-functionalized gold-coated AFM tip on live M. abscessus R cells adhered to a hydrophobic Petri dish; PBS; maximum force 250 pN, contact time 500 ms, retraction 1 um/s
[3] = target: Ag85 (antigen 85 complex proteins) on the surface of live Mycobacterium abscessus cells (M. abscessus (endogenous in CIP104536T cells)); test: single-cell force spectroscopy (AFM); single M. abscessus R cell on a polydopamine colloidal probe against Fn coupled to a gold surface; PBS; maximum force 250 pN, contact time 500 ms, approach and retraction 1 um/s

purified human plasma fibronectin (natural protein)
Kd [1]: 95 nM
equilibrium force (Feq) [1]: 34 pN
koff [1]: 33 s⁻¹
adhesion (rupture) force [2]: 75 pN
adhesion frequency (fraction of adhesive force curves), without peptide [2]: 30%
adhesion force [3]: 77 pN
adhesion frequency (fraction of adhesive force curves), without peptide [3]: 30%
